In paper PMC3081611 one finds percent existing as dimers and stoichiometry N data, which are given here for one substance.

In the assay the target is CurA ACPI-ACPII-ACPIII tridomain. Nature of the assay: negative stain electron microscopy.

In general, stoichiometry N refers to a count of units in the complex or per binding partner. For the substance “CurA ACPI-ACPII-ACPIII tridomain (domain or fragment)”, the percent existing as dimers is 25% and the stoichiometry N is 2.
